The values that follow come from patent US6420522 (VERTEX PHARMACEUTICALS, dated 2002).

In assay [1] the target is interleukin-1β converting enzyme (ICE), as used in the enzyme assays (UniProt P29466). The assay is described as follows: ICE enzyme inhibition, UV-visible substrate Suc-YVAD-pNA.
Assay [2] shares this target. Nature of the assay: ICE enzyme inhibition, fluorescent substrate Ac-YVAD-AMC.
Assay [3] deals with T1, interleukin-1β converting enzyme (ICE) in human peripheral blood mononuclear cells (human, UniProt P29466 1-404, limits assumed).
T1 sequence (looked up): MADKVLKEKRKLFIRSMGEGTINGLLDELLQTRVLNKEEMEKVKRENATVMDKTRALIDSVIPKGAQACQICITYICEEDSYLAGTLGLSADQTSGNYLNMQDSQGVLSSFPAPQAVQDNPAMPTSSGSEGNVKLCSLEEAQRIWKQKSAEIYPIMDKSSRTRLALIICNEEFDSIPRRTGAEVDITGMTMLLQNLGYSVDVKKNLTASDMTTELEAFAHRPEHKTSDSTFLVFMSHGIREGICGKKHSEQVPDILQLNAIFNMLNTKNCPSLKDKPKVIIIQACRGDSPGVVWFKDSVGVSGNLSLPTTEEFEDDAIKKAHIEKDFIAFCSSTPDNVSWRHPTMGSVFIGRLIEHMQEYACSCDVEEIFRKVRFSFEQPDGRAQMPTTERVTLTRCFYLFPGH
Nature of the assay: cell-based or functional assay.

Assay [4] addresses T2, interleukin-1β converting enzyme (ICE), as used in the enzyme assays (UniProt P29466 120-297; P29466 317-404, limits assumed).
T2 construct: also called IL-1β Converting Enzyme
T2 sequence (looked up) 1: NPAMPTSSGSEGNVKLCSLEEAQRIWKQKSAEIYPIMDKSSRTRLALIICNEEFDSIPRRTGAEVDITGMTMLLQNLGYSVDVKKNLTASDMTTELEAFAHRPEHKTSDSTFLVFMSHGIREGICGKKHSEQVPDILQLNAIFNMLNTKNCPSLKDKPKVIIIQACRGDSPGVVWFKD
T2 sequence (looked up) 2: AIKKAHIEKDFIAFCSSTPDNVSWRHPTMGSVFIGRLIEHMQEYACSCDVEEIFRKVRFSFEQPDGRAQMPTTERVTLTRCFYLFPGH
Nature of the assay: ICE enzyme inhibition, UV-visible substrate Suc-YVAD-pNA. Here is the method: Synthesis of analogous substrates is described by L. A. Reiter (Int. J. Peptide Protein Res. 43, 87–96 (1994)). […] Buffer, ICE and DMSO (if inhibitor is present) are added to the wells in the order listed. The components are left to incubate at room temperature for 15 minutes starting at the time that all components are present in all wells. The microtiter plate reader is set to incubate at 37° C. After the 15 minute incubation, substrate is added directly to the wells and the reaction is monitored by following the release of the chromophore (pNA) at 405–603 nm at 37° C. for 20 minutes. A linear fit of the data is performed and the rate is calculated in mOD/min. DMSO is only present during experiments involving inhibitors, buffer is used to make up the volume to 100 µl in the other experiments.

Assay [5] deals with T1, interleukin-1β converting enzyme (ICE) …. The assay is described as follows: cell-based or functional assay. This is another data set of the same source.
Assay [6] addresses T2, interleukin-1β converting enzyme (ICE), …. Nature of the assay: ICE enzyme inhibition, fluorescent substrate Ac-YVAD-AMC. Here is the method: This assay is run essentially according to Thornberry et al. (Nature 356: 768–774 (1992)), using substrate 17 referenced in that article. […] The following components are mixed:
Buffer and ICE are added to the wells. The components are left to incubate at 37° C for 15 minutes in a temperature-controlled wellplate. […] A linear fit of the data for each well is performed and a rate is determined in fluorescence units per second.

The target of assay [7] is T1, interleukin-1β converting enzyme (ICE) …. The assay is described as follows: cell-based or functional assay. This is another data set of the same source.

Read-outs that look alike come from different tables or passages of the source. Starred links: 1 amine or outer side, 2 acyl side, 3 side chain; linkers in the order of their positions; H or OH if unused. Non-standard residues stand in square brackets, D forms with d. No end group written: not given here. *: point of attachment. Asp‑al = Asp with the carboxyl reduced to aldehyde (3-amino-4-oxobutanoic acid), O=C[C@H](CC(=O)[*:3])N[*:1]; benzoxazol‑2‑yl ketone = Asp carboxyl replaced by 2-benzoxazolyl ketone, c1ccc2oc(*)nc2c1; Pro(4R-allyloxy) = 4(R)-allyloxyproline, C=CCO[C@@H]1C[C@@H](C(=O)[*:2])N([*:1])C1; X3 = (2,6-dichlorophenylmethyloxy)methyl ketone, Clc1cccc(Cl)c1COC*; X1 = 7‑methoxybenzoxazol‑2‑yl ketone, COc1cccc2nc(*)oc12; X2 = 4‑methoxybenzoxazol‑2‑yl ketone, COc1cccc2oc(*)nc12; X4 = (2-chlorobenzyloxy)methyl ketone, Clc1ccccc1COC*; Pro(4-benzyloxy) = 4-benzyloxyproline; Pro(4-phenoxy) = 4-phenoxyproline; Hyp = O=C(O)[C@@H]1C[C@@H](O)CN1; Cbz = O=C(OCc1ccccc1)*

The molecule “N-[2-(N-Acetyl-tyrosinyl-valinyl)-(S)-1,2,3,4-tetrahydroisoquinoline-3-carbonyl]-3-amino-oxobutanoic acid (peptide)” returned a Ki in assay [1] of 14 nM.
As for “N-(N-Acetyl-tyrosinyl-valinyl-pipecolyl)-3-amino-4-oxobutanoic acid (peptide)”, the values for the Ki in assay [2] and in assay [1] were 4.7 nM and 23 nM, respectively.
For Ac-Val-Pro-Asp-X1 (not fully specified (residues 2, 3)), the “Cell IC50 (µM): inhibitor concentration at which 50% of mature IL-1β is detected in the supernatant” value in assay [3] was determined as 4 µM. This molecule displayed an inhibition constant (Ki) in assay [1] of 175 nM.
Ac-YV[Pro(4R-allyloxy)][Asp‑al] (not fully specified (C-terminus), also called 85) [N-(N-Acetyl-tyrosinyl-valinyl-(4(R)-allyloxy prolinyl))-3(S)-amino-4-oxobutanoic acid]: in assay [3], the “Cell IC50 (µM): inhibitor concentration at which 50% of mature IL-1β is detected in the supernatant” value came to 9.8 µM. In assay [4], this molecule yielded a Ki of 3.5 nM.

B1: (3S) N-(N-Benzyloxycarbonyl-(S)-valinyl-(S)-alaninyl)-3-amino-4-(2-benzoxazolyl)-4-oxobutanoate (peptide)
peptide: Cbz-Val-Ala-Asp-{benzoxazol‑2‑yl ketone}
SMILES: CC(C)[C@H](NC(=O)OCc1ccccc1)C(=O)N[C@@H](C)C(=O)N[C@@H](CC(=O)O)C(=O)c1nc2ccccc2o1
B1 registered a Ki in assay [1] of 850 nM. In addition, the “Cell IC50 (µM): inhibitor concentration at which 50% of mature IL-1β is detected in the supernatant” value in assay [5] came out at 4.1 µM.
Consider Ac-YV[Pro(4-benzyloxy)][Asp‑al] (not fully specified (C-terminus)) [N-[N-Acetyl-tyrosinyl-valinyl-(4-benzyloxy)prolinyl]-3-amino-4-oxobutanoic acid], for which the values for the Ki in assay [6] and in assay [4] were 2 nM and 10 nM, respectively.
Regarding Cbz-Val-Ala-Asp-X3 (also: Asp-derived residue (R,S)), in assay [1], the Ki stood at 100 nM. In addition, the “Cell IC50 (µM): inhibitor concentration at which 50% of mature IL-1β is detected in the supernatant” value in assay [5] came to 3.3 µM.
In the case of Ac-YV[Hyp][Asp‑al] (not fully specified (C-terminus)) [N-[N-Acetyl-tyrosinyl-valinyl-(4-hydroxyprolinyl)]-3-amino-4-oxobutanoic acid], the results for the inhibitory constant (Ki) in assay [6] and in assay [4] were 3.9 nM and 12 nM, respectively.
With Ac-YV[Pro(4-phenoxy)][Asp‑al] (not fully specified (C-terminus)) [N-(N-Acetyl-tyrosinyl-valinyl-(4-phenoxyprolinyl))-3-amino-4-oxobutanoic acid], the Ki was 5.2 nM in assay [6] and 7.2 nM in assay [4]. Besides, the “Cell IC50 (µM): inhibitor concentration at which 50% of mature IL-1β is detected in the supernatant” value in assay [7] came to 2.6 µM.

B2: N-Acetyl-(S)-tyrosinyl-(S)-valinyl-(S)-alaninyl-3(S)-amino-5-(2-chlorobenzyloxy)-4-oxo-pentanoic acid (peptide)
peptide: Ac-YVAD-X4
SMILES: CC(=O)N[C@@H](Cc1ccc(O)cc1)C(=O)N[C@H](C(=O)N[C@@H](C)C(=O)N[C@@H](CC(=O)O)C(=O)COCc1ccccc1Cl)C(C)C
notes: also called 89
For B2, the Ki in assay [4] amounted to 18 nM.

B3: (3S) N-(N-Acetyl-(S)-tyrosinyl-(S)-valinyl-(S)-alaninyl)-3-amino-4-(2-(7-methoxybenzoxazolyl))-4-oxobutanoate (peptide)
peptide: Ac-YVAD-X1
SMILES: COc1cccc2nc(C(=O)[C@H](CC(=O)O)NC(=O)[C@H](C)NC(=O)[C@@H](NC(=O)[C@H](Cc3ccc(O)cc3)NC(C)=O)C(C)C)oc12
notes: also called 69a
Consider B3, for which, in assay [5], the “Cell IC50 (µM): inhibitor concentration at which 50% of mature IL-1β is detected in the supernatant” value is 0.735 µM. This molecule gave a Ki in assay [4] of 11 nM.

B4: (3S) t-Butyl N-(N-acetyl-(S)-tyrosinyl-(S)-valinyl-(S)-alaninyl)-3-amino-4-(2-(4-methoxybenzoxazolyl))-4-oxobutanoate (peptide)
peptide: Ac-YVAD-X2
SMILES: COc1cccc2oc(C(=O)[C@H](CC(=O)O)NC(=O)[C@H](C)NC(=O)[C@@H](NC(=O)[C@H](Cc3ccc(O)cc3)NC(C)=O)C(C)C)nc12
notes: The printed name begins with 't-Butyl', but the compound was made by the method for the acid 69a and its printed formula C31H37N5O10 is that of the free acid; also called 69b
Regarding B4, the “Cell IC50 (µM): inhibitor concentration at which 50% of mature IL-1β is detected in the supernatant” value in assay [5] came out at 0.745 µM. The molecule further gave an inhibitory constant (Ki) in assay [4] of 50 nM.
For Ac-YVAD-X3 (also: Asp-derived residue (R,S), also called 84b), in that order: 0.5 µM and 19 nM.
